Molecular target: the molecule itself
Assay: SDS-resistant high molecular mass complex on SDS-PAGE

B1: GABAA receptor γ2S(Q351X)^FLAG subunit (domain or fragment, human, UniProt P18507-1 40-389, looked up)
chain: QKSDDDYEDYASNKTWVLTPKVPEGDVTVILNNLLEGYDNKLRPDIGVKPTLIHTDMYVNSIGPVNAINMEYTIDIFFAQTWYDRRLKFNSTIKVLRLNSNMVGKIWIPDTFFRNSKKADAHWITTPNRMLRIWNDGRVLYTLRLTIDAECQLQLHNFPMDEHSCPLEFSSYGYPREEIVYQWKRSSVEVGDTRSWRLYQFSFVGLRNTTEVVKTTSGDYVVMSVYFDLSRRMGYFTIQTYIPCTLIVVLSWVSFWINKDAVPARTSLGITTVLTMTTLSTIARKSLPKVSYVTAMDLFVSVCFIFVFSALVEYGTLHYFVSNRKPSKDKDKKKKNPAPTIDIRPRSATI
  stoichiometry N: 2

— paper PMC2976503 (The Journal of neuroscience : the official journal of the …, 2010)
